Measurements as given in the DeepSol protein solubility set.

assay: soluble on expression in E. coli; label from the status in PepcDB or PDB records

Soluble on expression in E. coli, not soluble:
MGSDKIHHHHHHMAQEALCRKRHEGFNGSMVGVSLADLIQLKGTNRFSGCISVEFGGRCGVIFFQDGEIVHAEKGSCEGEEALQRIMRWPGGRFTAYPHLATDRHSIRKNRQHLLLDAHRAMDERHRHVDPKGERAEQTPLRERIRAIGMVSDAITLDFDGVPTDEKSPSADRLAAGACFLARLADRIGSRLGTGSPTSMVLEGTREHLFIYTGKHHLLAVAAGADHQPPMVEEAIRRAVQTA
MGSDKIHHHHHHMAQQKDTKKITVFTSTYNRAYILPKLYESLKLQTCKDFEWLVVDDGSEDETSELFDKWLEEDVIEIAYFKKKNGGKHRAINFAASKAQGQLFFIVDSDDYLTLTAVEIICKEWEKVENKKQSAGLCFRKICYNTGKMIGADFPVSPIDASSLTICYKWKIYEDKAEVFKTELIRRFPFPEIEGEKFISEAIVWNKISVCDSPLLRCVNTGIYMCEYLPDGLTANFIKLMKRNPKGGILYYKSLFNLSCIRKNPIDILKISLRLSQCIIYSFLRCFGSYL
MGSDKIHHHHHHMARSHRLFELMQALRRHRRTVSGASLAQELGVSLRTIRRDVATLQGMGADIDGEPGLGYILKPGFLLPPLSFTEEELQALMIGAQWVSRQTDDKFAFAVRNALAKISAVLPVEMRPTLEDETFYISKPLSVSTTIDLSEIRRALRDQCKLSITLAIEHAPKDAQIIWPIMLGFIEARRHLAAWCEGDSQYRVIDMDDIADAHVLTERYTRNRRQLIKEWRALEVLPCNVRGETC
MGSDKIHHHHHHMARYRVHVNDPLDKEATQLLMNKEELEVTSEHLEKDELMKIIPEVDVLVVRSATKVTADIIEAGKNLKIIARAGIGLDNIDVQKAKEKGIKVLNTPGASAPSVAELAMGLMLACARHIARATVSLKEGKWEKKALKGKELLGKTLGLIGFGNIGQEVAKRALAFGMKIIAYDPAKPETDLPVEYVDLDTLFKESDFISLHVPLTESTRHIINRESIAKMKDGVIIVNTARGGTIDEEALYEEVVSGKVYAAGLDVFEVEPPTDEIRRKLLSLDNVVATPHIGASTAEAQRRVGIELVEKIFKELGI
MGSDKIHHHHHHMASAATEGQLADWRTRALKLEDEVKKVIVGQDAAIRLINIAIFARGHVMLEGGVGVGKTTLLQSVARGIGGAYERIEGTVDLMPNDLVYHTFLGPEGRPQIDEGPLLRAGENLSVFFFNEINRARPQVHALMLRVMAERHLHAFKREYRLPHMVVFADRNQVEKNETFEIPSAARDRFMMEIPIHVPEDKALRKSLVFDTRFQHAEQLTHTVESGLLPFNMLNDFSDVVQNHVQSSQALEDYVIDLWDATQKPQDFGITLEGIDMQRLIQAGASPRGMGMLLKAARVHAWLMEREYVYPEDIHAVFHEVIAHRLVFNSMYESRRTVLARELTAKILQTVAVPS
MGSDKIHHHHHHMASIKAINNSAHGNVKVKSNPSFIQSKTKHFAPVVVQEFISASKEFPIVFIKDAETGRFNAVVLLGLKPQENLFFDEKSWQGSYIPEALTLYPFVIHQAEGSDKALLCVDEDSALVNETIGDAFFDEKGVQKEWLTAKGEAVVDYVNKSGVTQNFIQLLLAKELLAPQTLSLNLAGQEEYTLDGLYVINEQKLNDLSDSEFSELRKTNALPAIYAILMSMQCIKKLIDRQSSK
MGSDKIHHHHHHMASIKDVAKLAGVSIATVSRVINGYNNVSEETRKKVIDAIRKLNYHPVYAVKGAVLKRTIGVLVPNFGGFHYNEILTGIEKEAIKRDFTLMISTTLHRTSVELERLEVFFAKRVDGIIVCSSKKDEEQLERLIKSAIPVVVVDREEPEIRLDNVGIDNYAAGRMCAKYLLEKGHRKVLLLKGRKDIYSFSDRERGFIDYSTRHGIDVKVTPCGYFAEHGYHAVERYLKKHGRDFTAIFAINDLSAFGALKALHDLGVLVPDEVSVMGFDDDPISSYTIPPLTTVRQPREEMGRVAFEILYERLSGKKGVARRVVLPVEIVERESVKQL
MGSDKIHHHHHHMASLSELAVFIAVAEQGSFVGAGRVLGVSASAVGKRISRLEVDLGVRLLQRNTRSLALTAEGETVLSRGRSLLDEAESLRVVLERSSRQPGGVLRLSLPPIGGVLMAELAAFRQRYPEVALELDYSERNVDIIEEGFDAAIRVGAGDDGKLRSLALPGFRRLIVAAPDYLVRHGQPRSAAQLAEHQLIHYRSPNSGKLEAWPLVNAELPRALVCNSVHARLDFALQGQGIACLPDISIRRELEDGSLRPLLGSENGEKVVLRLLWPSSRGLSARMEAFLGFMRERSGAAPCENFKVRA
MGSDKIHHHHHHMASPGSGFWSFGSEDGSADPENPGTARAWCQVAQKFTGGIGNKLCALLYGDSGKPAEGGGSVTSRAATGKVACTCDQKPCNCPKGDVNYAFLHATDLLPACDGERPTLAFLQDVMNILLQYVVKSFDRSTKVIDFHYPNELLQEYNWELADQPQNLEEILTHCQTTLKYAIKTGHPRYFNQLSTGLDMVGLAADWLTSTANTNMFTYEIAPVFVLLEYVTLKKMREIIGWPGGSGDGIFSPGGAISNMYAMLIARYKMFPEVKEKGMAAVPRLIAFTSEHSHFSLKKGAAALGIGTDSVILIKCDERGKMIPSDLERRILEVKQKGFVPFLVSATAGTTVYGAFDPLLAVADICKKYKIWMHVDAAWGGGLLMSRKHKWKLSGVERANSVTWNPHKMMGVPLQCSALLVREEGLMQSCNQMHASYLFQQDKHYDLSYDTGDKALQCGRHVDVFKLWLMWRAKGTTGFEAHIDKCLELAEYLYTIIKNREGYEMVFDGKPQHTNVCFWFVPPSLRTLEDNEERMSRLSKVAPVIKARMMEYGTTMVSYQPLGDKVNFFRMVISNPAATHQDIDFLIEEIERLGQDL
MGSDKIHHHHHHMASPINESRIGYLYEAVRSGTVRAAADYLDVAPSAVSRQIALLEEELAIALVERNKRGVRPTEAGALLIEYFRQQRSHQGDLVAKLQEIRGLRRGTIVVVMGEGFASTMVGGPIKQFCEAYPEISITMDLCSTNEVMRRVSEDEADIGLVFNPSSDSKIVSRAGSRQPMHAIVSPAFPLVGKVKSVTLQDLMPYPMALTHPEHGTRRLVDAAMLLDKVRLTPAITTNSVNVLKLFAKSNLGFTLLAPIAIAPELAAGELVALPVDNRLLESSEAHLVTRAGRQLSPAANRLLNRLKAQIHKYDEYGAESGGQASLATQ
MGSDKIHHHHHHMATDASGGVGEKAKDHVHVPYEVVSYYAARVALLECMSVGATPFTFLVQNFSGDEPYQKMIDGINRALGEANQAQATIAGSTESNMVLEQSCLGVTVIGRVHQSALKIGITPKDAGIALLGKPLVGEEVVSQEKDVFPLKQFDELLQEEGVYEIIPVGSKGVKYELEVLAATNEWNTLQVPVNGNVDLTKSSGPATSLLITFDGTMEALLKAKYSSWWTTLASKIST
MGSDKIHHHHHHMATELKTFTDSQFIGKPVLADIEFIPHLEKINDFAATNGLKIFVTSSARPWGVPVGGAIVSPAKMSNHLIGHAIDMNIQIGGKLYTSNELGDFNSLPPPIKAFITTIRNHPVLRWGGDFGDPVHIDDGLNLHNPNLWKDKFPIIQSELTGLTQPGIRAVNSPRLLFLTTPLMKGDDIKVVQEKLIGKGFDLGITGADGFFGQATANAVIKFQDQEDLDPVDGIVGDKTKKALGL
MGSDKIHHHHHHMATSQWRLIASICFLALTGWSTKAVSAETDKPPFYQVQWQGKSAYLLGSIHIGRADFYPLPTQIETALGKAKGLVVEVDMNKADSNALLRQYGRADKTKGLDWQSRDKQTVESMTPYCAATANVCQSIQSFAPWLQATQVNLIRYNNLGYSTDYGVDMQLMARHAALPVYQLETAESQFQLLASFDSQAQWSMVREAISTSDADLLSLIAAWRSGNEAELDSIMQEQMGGEGDTEMLEKILWRRNHVMADGIIKLMGSTEITSPLFVVVGAGHVVGDKSVVQLLEQAGAKVSACWKQTCQ
MGSDKIHHHHHHMAVEKSTSIKNNSIKTVNVAVAVIHYQNQYLLGFRAASQHQGNRYEFVGGKIDAHETAKQALIREVAEETGINIANNTAVKLGRLHHDYGDKQVCLQVYRIEVTAQQYAQYKNLSCGLEGQKLTWVDKAKLLAGHYDLPAANKTILVWLQLPVQITITYPLAHFNGFPNPRAAWSQYHHEHIAADALVYMRIKVAGAEDSIERLLQLRSDIKAIAPDHLHTDKADNAVINRQIIAGHLTQTQLMQWSSSVAKESMSYSALSTNLPLIVSCHDADSINAANQLAFFRLQQQLPPVIGIFLAPVECTQTHPDTPPLGWEAWSKLAELADMPVIGLGGLSPVMSEQAMLHGGIAVAGIRQFLK
